Legend:
[1] = Adenosine deaminase (ADA) enzymatic activity assay kit; assay type: biochemical; conditions: for adenosine deaminase activity mU/mL / ΔA/min, adenosine deaminase activity: protein diluted to 5 μg/mL, serially diluted 2 fold (Table 21); for % activity vs. WT: relative to rHuADA2 WT (Table 21)
[2] = Heparin-affinity chromatography (heparin-Sepharose, SDS-PAGE); assay type: binding; conditions: for Heparin Column Binding: compared to WT rHuADA2, 0.3 mg/mL protein
Description: To assess binding of variants to heparin, heparin-affinity chromatography was employed to identify heparin-bound variants. Heparin binding was tested by mixing 35 μL of rHuADA2 WT and variants with 20 μL heparin-Sepharose™ resin (GE Healthcare, Pittsburgh, Pa.; Cat. No. 17-0998-01), followed by incubating at room temperature for 30 min. The mixture was then centrifuged through a 0.22 μm centrifuge filter and the flow-through, containing the unbound protein, was collected for analysis on an SDS-PAGE gel. 35 μL of 1.5 M NaCl was added to heparin-Sepharose resin and incubated at room temperature (RT) for 10 min to elute the remaining heparin-bound protein from the heparin-Sepharose. Samples of purified WT rHuADA2 and tested variants, before and after mixing with the heparin-Sepharose resin, were analyzed by SDS-PAGE to compare the degree of heparin binding.

| Molecule | % activity vs. WT [1] [%] | heparin binding compared to WT [2] | Heparin Column Binding [2] | enzymatic activity relative to WT rHuADA2 [1] | adenosine deaminase activity mU/mL [1] [mU/mL] | ΔA/min, adenosine deaminase activity [1] |
| --- | --- | --- | --- | --- | --- | --- |
| R23A: ADA2 variant SEQ ID NO:28 (protein, human ADA2 R20A, mature numbering) IDETRAHLLLKEKMMRLGGALVLNTKEELANERLMTLKIAEMKEAMRTLIFPPSMHFFQAKHLIERSQVFNILRMMPKGAALHLHDIGIVTMDWLVRNVTYRPHCHICFTPRGIMQFRFAHPTPRPSEKCSKWILLEDYRKRVQNVTEFDDSLLRNFTLVTQHPEVIYTNQNVVWSKFETIFFTISGLIHYAPVFRDYVFRSMQEFYEDNVLYMEIRARLLPVYELSGEHHDEEWSVKTYQEVAQKFVETHPEFIGIKIIYSDHRSKDVAVIAESIRMAMGLRIKFPTVVAGFDLVGHEDTGHSLHDYKEALMIPAKDGVKLPYFFHAGETDWQGTSIDRNILDALMLNTTRIGHGFALSKHPAVRTYSWKKDIPIEVCPISNQVLKLVSDLRNHPVATLMATGHPMVISSDDPAMFGAKGLSYDFYEVFMGIGGMKADLRTLKQLAMNSIKYSTLLESEKNTFMEIWKKRWDKFIADVATK | 68.4 | reduced heparin binding | Reduced | reduced adenosine deaminase activity | 53.3 | 23.2 |
| K14E: ADA2 variant SEQ ID NO:15 (protein, human ADA2 K11E, mature numbering) IDETRAHLLLEEKMMRLGGRLVLNTKEELANERLMTLKIAEMKEAMRTLIFPPSMHFFQAKHLIERSQVFNILRMMPKGAALHLHDIGIVTMDWLVRNVTYRPHCHICFTPRGIMQFRFAHPTPRPSEKCSKWILLEDYRKRVQNVTEFDDSLLRNFTLVTQHPEVIYTNQNVVWSKFETIFFTISGLIHYAPVFRDYVFRSMQEFYEDNVLYMEIRARLLPVYELSGEHHDEEWSVKTYQEVAQKFVETHPEFIGIKIIYSDHRSKDVAVIAESIRMAMGLRIKFPTVVAGFDLVGHEDTGHSLHDYKEALMIPAKDGVKLPYFFHAGETDWQGTSIDRNILDALMLNTTRIGHGFALSKHPAVRTYSWKKDIPIEVCPISNQVLKLVSDLRNHPVATLMATGHPMVISSDDPAMFGAKGLSYDFYEVFMGIGGMKADLRTLKQLAMNSIKYSTLLESEKNTFMEIWKKRWDKFIADVATK | 114.2 | not attenuated |  | improved enzymatic activity | 89.1 | 38.8 |
| R23D: ADA2 variant SEQ ID NO:29 (protein, human ADA2 R20D, mature numbering) IDETRAHLLLKEKMMRLGGDLVLNTKEELANERLMTLKIAEMKEAMRTLIFPPSMHFFQAKHLIERSQVFNILRMMPKGAALHLHDIGIVTMDWLVRNVTYRPHCHICFTPRGIMQFRFAHPTPRPSEKCSKWILLEDYRKRVQNVTEFDDSLLRNFTLVTQHPEVIYTNQNVVWSKFETIFFTISGLIHYAPVFRDYVFRSMQEFYEDNVLYMEIRARLLPVYELSGEHHDEEWSVKTYQEVAQKFVETHPEFIGIKIIYSDHRSKDVAVIAESIRMAMGLRIKFPTVVAGFDLVGHEDTGHSLHDYKEALMIPAKDGVKLPYFFHAGETDWQGTSIDRNILDALMLNTTRIGHGFALSKHPAVRTYSWKKDIPIEVCPISNQVLKLVSDLRNHPVATLMATGHPMVISSDDPAMFGAKGLSYDFYEVFMGIGGMKADLRTLKQLAMNSIKYSTLLESEKNTFMEIWKKRWDKFIADVATK | 20.3 | reduced heparin binding | Reduced | reduced adenosine deaminase activity | 15.9 | 6.9 |

More lines, main results first:

| % activity vs. WT [1] [%] | heparin binding compared to WT [2] | Heparin Column Binding [2] | Molecule | enzymatic activity relative to WT rHuADA2 [1] | adenosine deaminase activity mU/mL [1] [mU/mL] | ΔA/min, adenosine deaminase activity [1] |
| --- | --- | --- | --- | --- | --- | --- |
| 44 | reduced heparin binding | Reduced | R369A: ADA2 variant SEQ ID NO:31 (protein, human ADA2 R366A, mature numbering) IDETRAHLLLKEKMMRLGGRLVLNTKEELANERLMTLKIAEMKEAMRTLIFPPSMHFFQAKHLIERSQVFNILRMMPKGAALHLHDIGIVTMDWLVRNVTYRPHCHICFTPRGIMQFRFAHPTPRPSEKCSKWILLEDYRKRVQNVTEFDDSLLRNFTLVTQHPEVIYTNQNVVWSKFETIFFTISGLIHYAPVFRDYVFRSMQEFYEDNVLYMEIRARLLPVYELSGEHHDEEWSVKTYQEVAQKFVETHPEFIGIKIIYSDHRSKDVAVIAESIRMAMGLRIKFPTVVAGFDLVGHEDTGHSLHDYKEALMIPAKDGVKLPYFFHAGETDWQGTSIDRNILDALMLNTTRIGHGFALSKHPAVATYSWKKDIPIEVCPISNQVLKLVSDLRNHPVATLMATGHPMVISSDDPAMFGAKGLSYDFYEVFMGIGGMKADLRTLKQLAMNSIKYSTLLESEKNTFMEIWKKRWDKFIADVATK | reduced adenosine deaminase activity | 34.3 | 14.9 |
| 75.9 |  | Reduced | K374A: ADA2 variant SEQ ID NO:19 (protein, human ADA2 K371A, mature numbering) IDETRAHLLLKEKMMRLGGRLVLNTKEELANERLMTLKIAEMKEAMRTLIFPPSMHFFQAKHLIERSQVFNILRMMPKGAALHLHDIGIVTMDWLVRNVTYRPHCHICFTPRGIMQFRFAHPTPRPSEKCSKWILLEDYRKRVQNVTEFDDSLLRNFTLVTQHPEVIYTNQNVVWSKFETIFFTISGLIHYAPVFRDYVFRSMQEFYEDNVLYMEIRARLLPVYELSGEHHDEEWSVKTYQEVAQKFVETHPEFIGIKIIYSDHRSKDVAVIAESIRMAMGLRIKFPTVVAGFDLVGHEDTGHSLHDYKEALMIPAKDGVKLPYFFHAGETDWQGTSIDRNILDALMLNTTRIGHGFALSKHPAVRTYSWAKDIPIEVCPISNQVLKLVSDLRNHPVATLMATGHPMVISSDDPAMFGAKGLSYDFYEVFMGIGGMKADLRTLKQLAMNSIKYSTLLESEKNTFMEIWKKRWDKFIADVATK |  | 59.2 | 25.8 |
| 104.8 |  | Reduced | K375A: ADA2 variant SEQ ID NO:22 (protein, human ADA2 K372A, mature numbering) IDETRAHLLLKEKMMRLGGRLVLNTKEELANERLMTLKIAEMKEAMRTLIFPPSMHFFQAKHLIERSQVFNILRMMPKGAALHLHDIGIVTMDWLVRNVTYRPHCHICFTPRGIMQFRFAHPTPRPSEKCSKWILLEDYRKRVQNVTEFDDSLLRNFTLVTQHPEVIYTNQNVVWSKFETIFFTISGLIHYAPVFRDYVFRSMQEFYEDNVLYMEIRARLLPVYELSGEHHDEEWSVKTYQEVAQKFVETHPEFIGIKIIYSDHRSKDVAVIAESIRMAMGLRIKFPTVVAGFDLVGHEDTGHSLHDYKEALMIPAKDGVKLPYFFHAGETDWQGTSIDRNILDALMLNTTRIGHGFALSKHPAVRTYSWKADIPIEVCPISNQVLKLVSDLRNHPVATLMATGHPMVISSDDPAMFGAKGLSYDFYEVFMGIGGMKADLRTLKQLAMNSIKYSTLLESEKNTFMEIWKKRWDKFIADVATK |  | 81.8 | 35.5 |
